Test results published in EP3330286A1.

Tests used:
Assay in all cases: indirect ELISA, antigen coated, negative control
[1] = biological target: mixture of MPB70 and MPB83 recombinant proteins
[2] = biological target: p10 protein (ESAT-6) (Mycobacterium bovis) (UniProt P0A565)
[3] = biological target: p22 immunogenic composition
[4] = biological target: MPB83 recombinant protein (Mycobacterium bovis) (UniProt P0CAX7)
[5] = biological target: bovine tuberculin purified protein derivative (PPDb)
[6] = biological target: MPB70 recombinant protein (Mycobacterium bovis) (UniProt P0A669)
UniProt P0A669, sequence (P0A669 31-193 limits assumed): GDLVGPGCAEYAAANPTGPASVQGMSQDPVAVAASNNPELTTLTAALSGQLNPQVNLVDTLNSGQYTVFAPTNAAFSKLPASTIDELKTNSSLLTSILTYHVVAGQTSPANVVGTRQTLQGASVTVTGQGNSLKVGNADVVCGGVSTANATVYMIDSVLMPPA

UniProt P0CAX7, sequence (P0CAX7 25-220 limits assumed): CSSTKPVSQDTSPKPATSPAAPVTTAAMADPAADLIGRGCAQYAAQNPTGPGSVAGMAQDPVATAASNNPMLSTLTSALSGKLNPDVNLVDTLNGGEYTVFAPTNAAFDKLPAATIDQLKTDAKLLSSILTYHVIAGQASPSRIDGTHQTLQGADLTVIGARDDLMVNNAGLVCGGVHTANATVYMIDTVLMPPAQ
UniProt P0A565, sequence (P0A565 2-95 limits assumed): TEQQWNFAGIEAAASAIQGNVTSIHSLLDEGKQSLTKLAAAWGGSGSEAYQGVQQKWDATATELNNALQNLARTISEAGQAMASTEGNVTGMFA

Which optical density [1] does the source give for Control - here?
The optical density was 0.07 OD.

What about the optical density [2] of the same substance?
Its optical density is 0.06 OD.

What about the optical density [3] of the same substance?
Its optical density is 0.07 OD.

What about the optical density [4] of the same substance?
Its optical density is 0.07 OD.

And the optical density [5]?
Its optical density is 0.06 OD.

And the optical density [6]?
Its optical density is 0.08 OD.
